Data: patent US12338277

Experiments:
Assay in all cases: cell-based or functional assay
[1] = target: HIV-1 Env of pseudovirus 3016.v5.c45 (HIV-1)
[2] = target: HIV-1 envelope spike of pseudovirus SC422661.8 (HIV-1)
[3] = target: HIV-1 Env of pseudovirus BF1266.431a (HIV-1)
[4] = target: HIV-1 Env of pseudovirus 6041.v3.c23 (HIV-1)
[5] = target: HIV-1 envelope of pseudovirus T250-4 (HIV-1)
[6] = target: HIV-1 envelope of pseudovirus 231966.c02 (HIV-1)
[7] = target: HIV-1 Env of pseudovirus CNE8 (HIV-1)
[8] = target: HIV-1 envelope of pseudovirus MS208.A1 (HIV-1)
[9] = target: HIV-1 Env of pseudovirus 1394C9G1(Rev-) (HIV-1)
[10] = target: HIV-1 envelope of pseudovirus Q23.17 (HIV-1)
[11] = target: HIV-1 Env of pseudovirus 620345.c01 (HIV-1)
[12] = target: HIV-1 envelope of pseudovirus ZM197M.PB7 (HIV-1)
[13] = target: HIV-1 envelope of pseudovirus 191821_E6_1 (HIV-1)
[14] = target: HIV-1 envelope of pseudovirus ZM247v1(Rev-) (HIV-1)
[15] = target: HIV-1 Env of pseudovirus WEAU_d15_410_787 (HIV-1)
[16] = target: HIV-1 Env of pseudovirus 235-47 (HIV-1)
[17] = target: HIV-1 envelope of pseudovirus X1193_c1 (HIV-1)
[18] = target: HIV-1 Env of pseudovirus 0815.v3.c3 (HIV-1)
[19] = target: HIV-1 envelope of pseudovirus ZM109F.PB4 (HIV-1)
[20] = target: HIV-1 envelope of pseudovirus C3347.c11 (HIV-1)
[21] = target: HIV-1 Env of pseudovirus T255-34 (HIV-1)
[22] = target: HIV-1 Env of pseudovirus X1254_c3 (HIV-1)
[23] = target: HIV-1 Env of pseudovirus CNE52 (HIV-1)
[24] = target: HIV-1 Env of pseudovirus 6545.v4.c1 (HIV-1)
[25] = target: HIV-1 envelope of pseudovirus QH0692.42 (HIV-1)
[26] = target: HIV-1 Env of pseudovirus ZM214M.PL15 (HIV-1)
[27] = target: HIV-1 envelope of pseudovirus A07412M1.vrc12 (HIV-1)
[28] = target: HIV-1 envelope of pseudovirus C4118.c09 (HIV-1)
[29] = target: HIV-1 Env of pseudovirus CNE5 (HIV-1)
[30] = target: HIV-1 envelope of pseudovirus CNE5 (HIV-1)
[31] = target: HIV-1 envelope of pseudovirus 6041.v3.c23 (HIV-1)
[32] = target: HIV-1 Env of pseudovirus 62357_14_03_4589 (HIV-1)
[33] = target: HIV-1 Env of pseudovirus 6240_08_TA5_4622 (HIV-1)
[34] = target: HIV-1 envelope of pseudovirus Ce1086_B2 (HIV-1)
[35] = target: HIV-1 envelope of pseudovirus CNE20 (HIV-1)
[36] = target: HIV-1 Env of pseudovirus BJOX010000.06.2 (HIV-1)
[37] = target: HIV-1 envelope of pseudovirus ZM249M.PL1 (HIV-1)
[38] = target: HIV-1 Env of pseudovirus 231965.c01 (HIV-1)
[39] = target: HIV-1 Env of pseudovirus SC422661.8 (HIV-1)
[40] = target: HIV-1 Env of pseudovirus YU-2 (HIV-1) (UniProt P35961)
Sequence of HIV-1 Env of pseudovirus YU-2 (HIV-1) (P35961 32-843 limits assumed): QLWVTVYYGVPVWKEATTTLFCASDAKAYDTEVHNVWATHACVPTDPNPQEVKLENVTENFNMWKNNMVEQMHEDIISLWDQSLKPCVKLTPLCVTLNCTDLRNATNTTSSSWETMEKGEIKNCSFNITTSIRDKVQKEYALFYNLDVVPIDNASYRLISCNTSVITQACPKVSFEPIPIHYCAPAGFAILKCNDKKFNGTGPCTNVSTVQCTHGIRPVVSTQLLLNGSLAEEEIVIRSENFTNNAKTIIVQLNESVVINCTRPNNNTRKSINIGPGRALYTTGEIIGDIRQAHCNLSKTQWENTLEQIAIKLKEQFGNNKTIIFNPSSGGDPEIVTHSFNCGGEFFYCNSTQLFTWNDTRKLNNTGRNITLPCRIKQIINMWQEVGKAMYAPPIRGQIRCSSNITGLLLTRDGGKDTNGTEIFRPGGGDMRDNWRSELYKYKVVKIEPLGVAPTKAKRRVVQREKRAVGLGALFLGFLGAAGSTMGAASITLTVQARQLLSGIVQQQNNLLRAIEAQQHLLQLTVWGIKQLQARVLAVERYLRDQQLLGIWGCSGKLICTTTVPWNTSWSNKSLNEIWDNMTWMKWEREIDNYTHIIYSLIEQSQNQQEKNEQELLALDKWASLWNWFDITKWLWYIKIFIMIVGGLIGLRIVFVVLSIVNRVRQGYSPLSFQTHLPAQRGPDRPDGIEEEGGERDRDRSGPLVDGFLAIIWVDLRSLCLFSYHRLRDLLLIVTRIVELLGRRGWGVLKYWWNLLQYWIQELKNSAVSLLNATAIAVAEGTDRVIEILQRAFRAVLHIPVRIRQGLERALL

[41] = target: HIV-1 envelope of pseudovirus T278-50 (HIV-1)
[42] = target: HIV-1 Env of pseudovirus 6480.v4.c25 (HIV-1)
[43] = target: HIV-1 Env of pseudovirus Ce1086_B2 (HIV-1)
[44] = target: HIV-1 Env of pseudovirus THRO4156.18 (HIV-1)
[45] = target: HIV-1 envelope of pseudovirus TRJO4551.58 (HIV-1)
[46] = target: HIV-1 Env of pseudovirus HIV-16055-2.3 (HIV-1)
[47] = target: HIV-1 Env of pseudovirus 6540.v4.c1 (HIV-1)
[48] = target: HIV-1 Env of pseudovirus CNE19 (HIV-1)
[49] = target: HIV-1 envelope of pseudovirus HIV-001428-2.42 (HIV-1)
[50] = target: HIV-1 envelope of pseudovirus CNE17 (HIV-1)

Sequence of 10-1074 (antibody) (VH): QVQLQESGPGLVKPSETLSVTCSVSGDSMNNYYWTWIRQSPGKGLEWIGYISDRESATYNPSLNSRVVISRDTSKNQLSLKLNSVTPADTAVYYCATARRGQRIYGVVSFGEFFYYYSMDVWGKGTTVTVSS
Sequence of 10-1074 (antibody) (V domain): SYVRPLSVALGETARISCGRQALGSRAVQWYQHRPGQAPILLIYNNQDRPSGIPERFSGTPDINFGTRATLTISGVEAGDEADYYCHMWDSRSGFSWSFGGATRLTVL

10-1074 (antibody)
IC80 (TZM-bl neutralization) [1]: > 50 µg/mL | IC50 (TZM-bl neutralization assay) [2]: 0.145 µg/mL | IC80 (TZM-bl neutralization assay) [2]: 0.392 µg/mL | IC80 (TZM-bl neutralization) [3]: > 50 µg/mL | IC80 (TZM-bl neutralization) [4]: > 50 µg/mL | IC50 (TZM-bl neutralization) [5]: < 1 ng/mL | IC50 (TZM-bl neutralization) [6]: > 50 µg/mL | IC80 (TZM-bl neutralization) [7]: > 50 µg/mL | IC50 (TZM-bl neutralization) [8]: > 50 µg/mL | IC80 (TZM-bl neutralization) [9]: 0.191 µg/mL | IC50 (TZM-bl neutralization) [10]: 6 ng/mL | IC80 (TZM-bl neutralization) [11]: > 50 µg/mL | IC50 (TZM-bl neutralization) [12]: > 50 µg/mL | IC50 (TZM-bl neutralization) [13]: > 50 µg/mL | IC50 (TZM-bl neutralization) [14]: 0.042 µg/mL | IC80 (TZM-bl neutralization) [15]: 0.375 µg/mL | IC80 (TZM-bl neutralization) [16]: 0.163 µg/mL | IC50 (TZM-bl neutralization) [17]: 0.083 µg/mL | IC80 (TZM-bl neutralization) [18]: 0.138 µg/mL | IC50 (TZM-bl neutralization) [19]: > 50 µg/mL | IC50 (TZM-bl neutralization) [20]: > 50 µg/mL | IC80 (TZM-bl neutralization) [21]: > 50 µg/mL | IC80 (TZM-bl neutralization) [22]: 0.297 µg/mL | IC80 (TZM-bl neutralization) [23]: 13.1 µg/mL | IC80 (TZM-bl neutralization) [24]: > 50 µg/mL | IC50 (TZM-bl neutralization) [25]: 0.191 µg/mL | IC80 (TZM-bl neutralization) [26]: 2.37 µg/mL | IC50 (TZM-bl neutralization) [27]: < 1 ng/mL | IC50 (TZM-bl neutralization) [28]: > 50 µg/mL | IC80 (TZM-bl neutralization) [29]: > 50 µg/mL | IC50 (TZM-bl neutralization) [30]: > 50 µg/mL | IC50 (TZM-bl neutralization) [31]: > 50 µg/mL | IC80 (TZM-bl neutralization) [32]: > 50 µg/mL | IC80 (TZM-bl neutralization) [33]: 0.306 µg/mL | IC50 (TZM-bl neutralization) [34]: > 50 µg/mL | IC50 (TZM-bl neutralization) [35]: < 1 ng/mL | IC80 (TZM-bl neutralization) [36]: > 50 µg/mL | IC50 (TZM-bl neutralization) [37]: > 50 µg/mL | IC80 (TZM-bl neutralization) [38]: > 50 µg/mL | IC80 (TZM-bl neutralization) [39]: 0.418 µg/mL | IC80 (TZM-bl neutralization) [40]: 0.398 µg/mL | IC50 (TZM-bl neutralization) [41]: 2.15 µg/mL | IC80 (TZM-bl neutralization) [42]: 0.041 µg/mL | IC80 (TZM-bl neutralization) [43]: > 50 µg/mL | IC80 (TZM-bl neutralization) [44]: > 50 µg/mL | IC50 (TZM-bl neutralization) [45]: 0.17 µg/mL | IC80 (TZM-bl neutralization) [46]: > 50 µg/mL | IC80 (TZM-bl neutralization) [47]: > 50 µg/mL | IC80 (TZM-bl neutralization) [48]: > 50 µg/mL | IC50 (TZM-bl neutralization) [49]: 0.044 µg/mL | IC50 (TZM-bl neutralization) [50]: 2.69 µg/mL
